Laboratory results: patent US20110213337A1 (BOARD OF TRUSTEES OF THE UNIVERSITY OF ARKANSAS, published 2011)

Biological target: T1, HLA A2.1 (A*0201) (human)
T1 construct: whole, on cells; Endogenous HLA class I molecule of T2 cells and of EBV-transformed LCL; also called HLA A0201
Test: T2 cell HLA A2.1 stabilisation assay, flow cytometry
Description: This technique employs T2 cells which are peptide transporter-deficient and thus express low endogenous HLA class I levels due to inability to load peptide and stabilize HLA class I folding for surface expression.

binding result: binds
B1: Hepsin peptide 170-178 (peptide)
peptide: SLGRWPWQV
notes: Synthesized peptide added to T2 cells or loaded onto LCL; also called hepsin 170-178
